Test results published in patent US20260226104A1 (Dana-Farber, published 2026).
Changes are numbered by the printed parent chain. In names and notes the source's numbering stands. Bridges are numbered along the chain shown (N, C = ends). Where no end group is shown, it is not given here. [ ]: non-standard residue; d: D form. The star is where a group is joined. D‑NA = N-terminal D-nipecotic acid moiety terminating in acrylamide (cysteine-reactive warhead); Biotin = O=C1N[C@H]2[C@H](CS[C@H]2CCCCC(=O)*)N1; R8 = C=CCCCCCC[C@@](C)(N)C(=O)O; S5 = C=CCCC[C@](C)(N)C(=O)O

T1: His-BFL-1ΔC C4S/C19S (human, UniProt Q16548 1-151)
T1 construct: also called BFL-1 C4S/C19S; not shown: N-terminal hexahistidine tag (pET17b)
T1 chain: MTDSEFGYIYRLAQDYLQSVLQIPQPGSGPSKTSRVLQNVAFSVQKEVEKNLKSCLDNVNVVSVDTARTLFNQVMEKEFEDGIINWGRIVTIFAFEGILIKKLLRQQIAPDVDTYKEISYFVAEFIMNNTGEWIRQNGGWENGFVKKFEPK

T2: recombinant full-length BFL-1 (human, UniProt Q16548 1-175)
T2 construct: not shown: N-terminal hexahistidine tag
T2 sequence: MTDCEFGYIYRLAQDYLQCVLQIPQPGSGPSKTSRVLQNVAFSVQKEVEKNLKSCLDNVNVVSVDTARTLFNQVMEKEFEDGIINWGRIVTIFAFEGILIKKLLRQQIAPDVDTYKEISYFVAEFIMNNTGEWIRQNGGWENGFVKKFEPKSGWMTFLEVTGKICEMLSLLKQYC

T3: His-BFL-1ΔC (human, UniProt Q16548 1-151)
T3 construct: also called WT His-BFL-1ΔC; wild-type BFL-1 construct; not shown: N-terminal hexahistidine tag (pET17b)
T3 sequence: T1 chain with S4C, S19C

T4: full length HA-BFL1 (human, UniProt Q16548 1-175)
T4 construct: also called HA-tagged full-length BFL-1; expressed full-length BFL-1; not shown: HA tag
T4 sequence: T2 sequence

B1: D-NA-NOXA-15 R31E (peptide)
peptide: {D‑NA}-AT[R8]LREFGD[S5]LNFRQ
modifications: staple 3-10
notes: also called D-NA-NOXA SAHB-15 R31E; cysteine-reactive NOXA-15 R31E SAHB
B2: Ac-NOXA-15 R31E (peptide)
peptide: Ac-AT[R8]LREFGD[S5]LNFRQ
modifications: staple 3-10
notes: also called acetylated NOXA-15 R31E SAHB; acetylated counterpart of D-NA-NOXA-15 R31E
B3: D-NA-NOXA-15 F32A (peptide)
peptide: {D‑NA}-AT[R8]LRRAGD[S5]LNFRQ
modifications: staple 3-10
notes: also called D-NA-NOXA SAHB-15 F32A; cysteine-reactive NOXA-15 F32A SAHB
B4: biotinylated Ac-NOXA-15 R31E SAHB (peptide)
peptide: Ac-AT[R8]LREFGD[S5]LNFRQK(Biotin)
modifications: staple 3-10
notes: also called acetylated counterpart of D-NA-NOXA-15 R31E

How the values were obtained:
[1] = biological target: T5, MCL-1ΔNΔC (human, UniProt Q07820 172-329); assay: competitive fluorescence polarization against FITC-BID BH3
T5 construct: As printed for the fluorescence polarization assay
T5 sequence (Q07820 172-329, stated change not applied): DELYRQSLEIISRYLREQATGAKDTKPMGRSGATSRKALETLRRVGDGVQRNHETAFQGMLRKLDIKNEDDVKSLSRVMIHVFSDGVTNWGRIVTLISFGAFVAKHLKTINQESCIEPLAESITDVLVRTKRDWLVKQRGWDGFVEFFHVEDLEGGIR
Procedure: (§1) The warhead-bearing D-NA-NOXA-15 R31E SAHB was only able to compete with FITC-BID BH3 for binding to BFL-1ΔC C4S/C19S (FIG. 20), and this activity was dependent on the presence of Cys55 in the BH3-binding pocket, as this effect was not observed with BFL-1ΔC C4S/C19S/C55S (FIG. 21).
(§2) Fluorescence polarization (FP) assays were performed as previously described (Pitter et al., 2008 (supra)). Briefly, direct binding curves were first generated by FITC-BID BH3 (25 nM) with serial dilutions of anti-apoptotic protein, and FP was measured at 5 min on a SpectraMax M5 microplate reader (Molecular Devices). For competition assays, a serial dilution of acetylated or warhead-bearing NOXA SAHB was added to the indicated recombinant protein at ~EC75 concentration, as determined by the direct binding assay. FITC-BID BH3 (25 nM) was then added and fluorescence polarization was measured at equilibrium. IC50 values were calculated by nonlinear regression analysis of competitive binding curves using PRISM software (GraphPad).

[2] = biological target: T1, His-BFL-1ΔC C4S/C19S; assay: as above
Procedure: as §1, §2

[3] = biological target: T2, recombinant full-length BFL-1; assay: in vitro covalent conjugation; reducing and denaturing gel electrophoresis
[4] = biological target: T3, His-BFL-1ΔC; assay: as above
[5] = biological target: T4, full length HA-BFL1; assay: 293T cells treated with 20 µM NOXA SAHB for 12 hours; anti-HA western of lysates
Text: Of note, native BFL-1 runs at a higher molecular weight than recombinant or expressed BFL-1.

[6] = biological target: T3, His-BFL-1ΔC; assay: streptavidin pull-down of biotinylated SAHB from an equimolar mixture of recombinant GST-MCL-1ΔNΔC, BCL-XLΔC and His-BFL-1ΔC; silver stain
Procedure: The biotinylated D-NA-NOXA-15 F32A SAHB or corresponding acetylated construct was incubated in an equimolar mixture with recombinant BFL-1, BCL-XL, and MCL-1, and then subjected to streptavidin pull-down. […] Additionally, the preferential interactions of these peptides were assessed with endogenous protein in lysates from the A375P melanoma cell line.
WT His-BFL-1ΔC, BCL-XLΔC (tagless), and GST-MCL-1ΔNΔC (1 μM each) were combined and incubated with 3 mM DTT in PBS for thirty minutes at room temperature. Mixtures were treated with vehicle or the indicated C-terminally biotinylated NOXA SAHB (1 μM) for four hours and were then added to 30 μL PBS-washed high-capacity streptavidin (SA) agarose beads (Thermo Fisher Pierce) and incubated with rotation at room temperature for two hours. The beads were then washed three times with NP-40 lysis buffer (1% NP-40, 50 mM Tris pH 8, 100 mM NaCl, 2.5 mM MgCl2) and three times with PBS. To elute bound protein, beads were boiled for ten minutes with 10% SDS containing 10 mg/mL biotin. After elution, samples were boiled with 3×LDS and 2M DTT for twenty minutes. Gel electrophoresis using a 12% Bis-Tris gel was conducted on inputs (2%) and eluates ([…]) and gels were developed using the Pierce silver staining kit (Thermo Fisher).

Binder	binding result [1]	binding result [2]	binding result [3]	binding result [4]	binding result [5]	binding result [6]
B1	binds	binds	binds	binds	binds	–
B2	binds	–	–	–	–	–
B3	–	–	binds	binds	binds	–
B4	–	–	–	–	–	no binding (tested: 1 µM)
